For this experiment, the target named is ACE2-ECD-sFc fusion protein (Homo sapiens). Kind of experiment: ELISA, plate coated with ACE2 ECD-sFc. (In general: ELISA stands for enzyme-linked immunosorbent assay.)

By EC50 is commonly meant the concentration that produces a half-maximal response.

In turn, “S1-RBD-His protein (from UniProt P0DTC2 331-530) (ligand)” registered an EC50 of 0.4 µg/mL.

For the substance “S1-RBD-His-HRP (from UniProt P0DTC2 331-530) (ligand)”, the EC50 turned out to be 0.19 µg/mL.

The values are drawn from patent publication US20230109393A1.
